Experimental findings from publication doi:10.1101/2021.11.04.467353, “SHIP164 is a Chorein Motif Containing Lipid Transport Protein that Controls Membrane Dynamics and Traffic at the Endosome-Golgi Interface” (bioRxiv, 2021) are described below.

This series deals with the molecule itself. In words: negative-stain electron microscopy; 2D class averages of negatively stained purified protein; 3XFLAG-SHIP164_(Δ901-1099) at 50 nM, 2% uranyl acetate; the MBP fusion locates the N-termini at the two ends of the rod.

B1: MBP-SHIP164 fusion (MBP fused to the N-terminus of SHIP164_(Δ901–1099)) (natural protein)
chain: not shown
notes: SHIP164 (UHRF1BP1L), human, codon-optimised ORF, lacking residues 901-1099; Probably expressed in Expi293F and purified like m1, and it may also carry a 3xFLAG tag
What is called stoichiometry N is the number of molecules, sites or subunits per partner or assembly. On to B1, for which the “stoichiometry N” value is 2.

B2: 3XFLAG-SHIP164^Δ901-1099 (natural protein)
chain: not shown
notes: SHIP164 (UHRF1BP1L), human, codon-optimised ORF from Genscript, lacking the predicted unstructured segment residues 901-1099; also called 3×FLAG-SHIP164_(Δ901-1099); UHRF1BP1L; source: Expi293F, transfected, purified (anti-FLAG M2 resin, Superdex 200 gel filtration); not shown: 3xFLAG, N-terminal, kept
Turning to B2, the “stoichiometry N” value is 2.
